The record followed here is article PMC5429695.

One experiment concerns the target RfDoc1a, group 1a dockerin, thioredoxin A fusion, wild type (R. flavefaciens FD-1). Put plainly: ITC; 308 K; dockerin in the cell (stirred at 307 revolutions/min) titrated with 28 injections of 10 uL cohesin at 220 s intervals; proteins in 50 mM HEPES pH 7.5, 0.5 mM CaCl2, 0.5 mM TCEP; single-site model. Background: In ITC the heat of successive injections is recorded.
Broadly, the stoichiometry N is a count of units in the complex or per binding partner. With “RfCohScaB3 N124A, C-terminal hexa-histidine tag (domain or fragment)”, the Ka was 5.54e+07 M⁻¹, the dH is -52.8 kcal/mol and the stoichiometry N is 1.

With “RfCohScaB3 N75A + N124A, C-terminal hexa-histidine tag (domain or fragment)”, the Ka is 1.86e+06 M⁻¹, the dH is -56.3 kcal/mol and the stoichiometry N was determined as 1.

The substance “RfCohScaB3 N75A + H121A, C-terminal hexa-histidine tag (domain or fragment)” showed a Ka of 2.49e+06 M⁻¹, a dH of -50.8 kcal/mol and a stoichiometry N of 1.

Consider “RfCohScaB3 N75A + E84A, C-terminal hexa-histidine tag (domain or fragment)”, for which the Ka stood at 2.08e+07 M⁻¹, the dH was -51.8 kcal/mol and the stoichiometry N came to 1.

Consider “RfCohScaB3 H121A, C-terminal hexa-histidine tag (domain or fragment)”, for which the Ka was 2.66e+07 M⁻¹, the dH is -52.6 kcal/mol and the stoichiometry N turned out to be 1.

Consider “RfCohScaB3 H121A + N124A, C-terminal hexa-histidine tag (domain or fragment)”, for which the Ka was 2.28e+06 M⁻¹, the dH was -46.4 kcal/mol and the stoichiometry N worked out at 1.

For the substance “RfCohScaB3 K77A, C-terminal hexa-histidine tag (domain or fragment)”, the Ka turned out to be 4.23e+08 M⁻¹, the dH was -57.4 kcal/mol and the stoichiometry N was found to be 1.

“RfCohScaA, ScaA cohesin with C-terminal hexa-histidine tag (domain or fragment)” gave a Ka of 5.03e+08 M⁻¹, a dH of -38.9 kcal/mol and a stoichiometry N of 1.

“RfCohScaB3 N68A, C-terminal hexa-histidine tag (domain or fragment)” showed a Ka of 1.1e+08 M⁻¹, a dH of -58.6 kcal/mol and a stoichiometry N of 1.

In turn, “RfCohScaB3 L79A, C-terminal hexa-histidine tag (domain or fragment)” gave a Ka of 7.59e+06 M⁻¹, a dH of -51.9 kcal/mol and a stoichiometry N of 1.

Substance “RfCohScaB3 N75A, C-terminal hexa-histidine tag (domain or fragment)” came in with a Ka of 9.09e+07 M⁻¹, a dH of -52.7 kcal/mol and a stoichiometry N of 1.

With “RfCohScaB3 E84A + N124A, C-terminal hexa-histidine tag (domain or fragment)”, the Ka amounted to 1.53e+07 M⁻¹, the dH is -55 kcal/mol and the stoichiometry N was 1.

With “RfCohScaB3 E84A, C-terminal hexa-histidine tag (domain or fragment)”, the Ka is 3.62e+07 M⁻¹, the dH is -55.5 kcal/mol and the stoichiometry N is 1.

For “RfCohScaB3 E84A + H121A, C-terminal hexa-histidine tag (domain or fragment)”, the Ka worked out at 1.65e+06 M⁻¹, the dH was -66.9 kcal/mol and the stoichiometry N stood at 1.

The target of another experiment is RfDoc1b, group 1b dockerin, thioredoxin A fusion, wild type (R. flavefaciens FD-1). The experiment is described as above.
“RfCohScaA, ScaA cohesin with C-terminal hexa-histidine tag (domain or fragment)”: the Ka worked out at 2.67e+07 M⁻¹, the dH is -61.2 kcal/mol and the stoichiometry N is 1.
